Source: paper PMC4989314, “Regulatory (pan-)genome of an obligate intracellular pathogen in the PVC superphylum”

T1: His6-Euo (Waddlia chondrophila, UniProt D6YSI2 1-142)
T1 sequence: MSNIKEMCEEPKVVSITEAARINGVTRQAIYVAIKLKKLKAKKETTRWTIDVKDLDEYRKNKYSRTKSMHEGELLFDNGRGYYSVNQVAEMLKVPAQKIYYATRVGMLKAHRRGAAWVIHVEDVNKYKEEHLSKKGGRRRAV

T2: His6-Euo (Waddlia chondrophila) (UniProt D6YSI2)
T2 sequence: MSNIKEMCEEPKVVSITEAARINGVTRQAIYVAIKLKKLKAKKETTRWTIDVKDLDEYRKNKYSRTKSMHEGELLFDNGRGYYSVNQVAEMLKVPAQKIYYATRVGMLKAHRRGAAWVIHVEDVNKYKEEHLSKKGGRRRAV

T3: His6-HrcA (Waddlia chondrophila) (UniProt D6YSD6)
T3 sequence: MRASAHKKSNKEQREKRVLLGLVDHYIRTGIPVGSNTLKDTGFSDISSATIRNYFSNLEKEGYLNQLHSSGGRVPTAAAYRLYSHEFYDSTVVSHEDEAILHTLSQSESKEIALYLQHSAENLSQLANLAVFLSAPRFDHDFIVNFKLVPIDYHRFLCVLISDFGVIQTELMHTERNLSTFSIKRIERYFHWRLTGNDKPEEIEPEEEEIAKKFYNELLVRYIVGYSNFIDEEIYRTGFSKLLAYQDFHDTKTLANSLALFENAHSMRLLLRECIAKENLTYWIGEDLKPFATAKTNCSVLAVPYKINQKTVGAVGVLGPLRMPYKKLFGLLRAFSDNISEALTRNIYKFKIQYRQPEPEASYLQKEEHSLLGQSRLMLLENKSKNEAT


Molecular target: T1, His6-Euo
Test: EMSA; EMSA with Cy5 PCR probes or 80 ng unlabelled DNA (GelRed); buffer, salt, pH and temperature not in material
Conditions: protein: recombinant; tags: His6; chain copies: 2; label: Cy5; blunt

| Molecule | binding result |
| --- | --- |
| PftsY_mut 1+2 (dsDNA) DNA 1: TTTGTCGACTTATCTTACACAACTGAGACTTCCAATGGTACTACCCTTCTTCCCATCTAGTTTTGAAAAAGTTAAAAATGCCCTCTCCAAAACGCGTTCCGCTCTGGGAGAAAAATTGCGTTCTCTTTTCAGTGGAAAAATCGATGAAGAAACACTGGACTGCAGTTT DNA 2: AAACTGCAGTCCAGTGTTTCTTCATCGATTTTTCCACTGAAAAGAGAACGCAATTTTTCTCCCAGAGCGGAACGCGTTTTGGAGAGGGCATTTTTAACTTTTTCAAAACTAGATGGGAAGAAGGGTAGTACCATTGGAAGTCTCAGTTGTGTAAGATAAGTCGACAAA | no binding |
| PqueF_mut 1+2+3+4 (dsDNA) DNA 1: AAACTGCAGGGCCAATCTTTCATTGATTGTCCATTCATGGTCGGCAAGGGTTGAGAGAAGGGCTTTATTTTAGGGTTCGTTCTTTGATAGGGTTGCAGGCATGGTGCAAGTGCAGGATTCAGTTTTAGGAAAAAAGACGTTTTATAAGGATCGGTACGAGTCGACAAA DNA 2: TTTGTCGACTCGTACCGATCCTTATAAAACGTCTTTTTTCCTAAAACTGAATCCTGCACTTGCACCATGCCTGCAACCCTATCAAAGAACGAACCCTAAAATAAAGCCCTTCTCTCAACCCTTGCCGACCATGAATGGACAATCAATGAAAGATTGGCCCTGCAGTTT | no binding |

Molecular target: T2, His6-Euo (Waddlia chondrophila)
Test: EMSA
Conditions: EMSA with Cy5 PCR probes or 80 ng unlabelled DNA (GelRed); buffer, salt, pH and temperature not in material

| Molecule | binding |
| --- | --- |
| TCGTACCGATCCTTATAAAACGTCTTTTTTCCTAAAACTGAATCCTGCACTTGCACCATGCCTGCAATTTTATCAAAGAACGAATTTTAAAATAAAGAAATTCTCTCAAAAATTGCCGACCATGAATGGACAATCAATGAAAGATTGGCC (double strand) [PqueF (frag0)] | binds |
| CACCGGAAGATGTGGTGCTGATTGCGGGCAGAGGGCATGAACCTTATCAAATATTTGCGCATCAAACAATAGAATTTAAAGATCGCGAAGTTGTAGAGGATATATTACATTCATGAGGAGAAGCAATCGCAGGGAATTCTTAAAAAATAG (double strand) [PamiA] | binds |
| TGTAATGCCATGGGATCGCGTTTAAGCGAGATCATATAGTAGCTCCTAAAAAAATATTCCTTGCAAGACAAACAAATTTTTTCGTGTAAAGTTTGCATTTTCAAAATCGGACCAGATGAAAATGCGCAAACTCTCTTTTTTACTCCTCC (double strand) [Prhs9] | binds |
| TTGTCATGAAAAACTCTATGAATCAAATAAGGAGGGGCATTTACATGGCGCTCAGTAAAACTATCAACGAAATGAGGAGCCTTTTTACAGGTCTAATCGATGACCTTCAAAAGGCTGAAGCAGGTAACAAAGCTGCCTCTCAGCGTGTAA (double strand) [PhctA] | no binding |
| TTCGCGGGCAGCGTTGATCCCGCCAAAACCGCCTCCAATAATAATGACTTTAGGTTTGCTCATATCTTGTTTATATAATTAAAAATGATTTTAAAAATCCAGATTAAAATTGTTCGACGAGTTGATGGATTTCTGAAAAGGAAAGGGGGT (double strand) [Pndh] | binds |
| TCCAGTGTTTCTTCATCGATTTTTCCACTGAAAAGAGAACGCAATTTTTCTCCCAGAGCGGAACGCGTTTTGGAGAGGGCATTTTTAACTTTTTCAAAACTAGATTTTAAGAATTTTAGTACCATTGGAAGTCTCAGTTGTGTAAGATAA (double strand) [PftsY (frag0)] | binds |

Molecular target: T3, His6-HrcA (Waddlia chondrophila)
Test: EMSA
Conditions: EMSA with Cy5 PCR probes or 80 ng unlabelled DNA (GelRed); buffer, salt, pH and temperature not in material

| Molecule | binding |
| --- | --- |
| CTAGCTAGCTAAACATCTGCTTAAGTGATAACACCTCTAATGCTATCAATATCCTTCGATATTTTGCAATAGAAAATTAGCACTTTGGCAATTAAAGTGCTAATAACTTATCCAGCTCCTCGACAAGATTGCTGAATTTTTTGATGGCAG (double strand) [PgroES1] | binds |
| CCTATATCGTATGGCGGCTAAAAGAGCTTGACCGGGCGAAAAGGGAGCAATTTAAGCAAAAGCGGGAACGGTATTTATTGTACCGCTAAAAACTGGCACTTAAATTCATCAACTGCTAATATGTTGACGTAAATCCATTGAACTCTTAAA (double strand) [PgroES3] | binds |
| CATAACTTTTTGGGAATTTCAAGATCGACTCGGGATCGTGCAGTAAAACATTAGTATCTAATACAAAGGTCTTTTTCTTCACATACGCTCCTTTTTAATAGCACTTATAGCTTGAGAGTGCTAAATCAATTGACTTAAATAGGTTTATTT (double strand) [PphoH] | binds |
| ATTTATAAAGAAACTTCTCTTGGAGGGCTTGCAGTAAACGTGCCTGAATGCTAAAAGATTTGGTATATGGAGCTAATAAAGGATCAAATGCAAAGATACGAAGAACGGGAACTCGTCGAATTCGAAAATCAAGGGATAAAAATTTTTGGA (double strand) [Pwcw_1080] | binds |
| GCTGCTCAATTGGTCTATAAAAAAGGACTTGACTGGCGCCCTTCTATTGTCGACATTTTACCCGTCATTCTGGAAAAACAAATCTAGCAAATAGCTTTGTTGAGTGCTAATTCCTTCTTGACCTCTTTTAAACCCCTTGTTATAATGAAA (double strand) [PhrcA (HrcA EMSA)] | binds |
